Data published in article PMC9026278.

Key:
Test in all cases: SPR
[1] = target: CH2-4.10 N299A aglycosylated anti-mesothelin human IgG1 antibody (human)
[2] = target: CH2-4.15 N297A aglycosylated anti-mesothelin human IgG1 antibody (human)
[3] = target: CH2-4.16 N298A aglycosylated anti-mesothelin human IgG1 antibody (human)
[4] = target: CH2-4.16 N298A-tubulysin (MSLN, huG1)
[5] = target: CH2-4.19 N301A aglycosylated anti-mesothelin human IgG1 antibody (human)
[6] = target: CH2-4.20 N300A aglycosylated anti-mesothelin human IgG1 antibody (human)
[7] = target: N297A aglycosylated anti-mesothelin human IgG1 antibody (human)

fold weaker binding than the corresponding glycosylated species [1]: 100 fold
fold weaker binding than the corresponding glycosylated species [2]: 100 fold
fold weaker binding than the corresponding glycosylated species [3]: 100 fold
Kd [4]: 0.172 µM
fold weaker binding than the corresponding glycosylated species [5]: 100 fold
fold weaker binding than the corresponding glycosylated species [6]: 100 fold
fold weaker binding than the corresponding glycosylated species [7]: 100 fold
Substance: hCD64 (from UniProt P12314 16-374) (receptor)
